In data set [1] the target is Bjerkandera adusta BaEstB, Hormone-Sensitive Lipase (HSL) family esterase (Bjerkandera adusta). Briefly: dynamic light scattering (DLS); purified BaEstB in presence of the substrate 2-naphthyl acetate; same conditions, considering its optimum pH and temperature; 12 scans of 10 s.
Data set [2] shares this target. Briefly: dynamic light scattering (DLS); purified BaEstB without substrate; 30°C; Malvern Zetasizer Nano ZSP; 12 scans of 10 s; hydrodynamic radius from the Stokes-Einstein equation assuming spherical geometry.
Substrate in data set [3]: CC(=O)Oc1ccc2ccccc2c1
The data set can be described thus: isothermal titration calorimetry, single injection, Michaelis-Menten fit. The conditions noted are these: 30°C in methods, results state optimum pH and temperature (pH 7.0; 45°C). In kind it is biochemical, Bjerkandera adusta.

In general, stoichiometry N refers to the number of molecules, sites or subunits per partner or assembly. Consider “Bjerkandera adusta BaEstB, Hormone-Sensitive Lipase (HSL) family esterase (enzyme)”, for which the stoichiometry N in data set [1] and in data set [2] was 2 in each case.

B1: BaEstB (Bjerkandera adusta) (protein)
chain: MESIRLSNAAGTISNDILAQVTFANEAIYPLLEKRRAEIENVTRKTFRYGALPGSEMDVYYPSSTPSGKAPVLAFVHGGAYVHGSKTHPPPGDLIYKNVGAFYASQGFVTVIPDYRKLPGMKWPDAPSDIASALTFLVAHSSDVNASAPTAADVQNIFLVGHSAGGAIASDVLLAPGLLPANVRRSVRGLIVFGGMMHYRGLEYPIPPFVLPGYYGTDEDVRAHEPLGLLESASDEIVRGLPDVLMVLSEHDVAAMRAAVTDFRSALAERTGKDVPLLVAQGHNHISPHYALSSGEGEEWGHDVIRWMRAKLASGNGVPATE
notes: full-length ORF (969 nt, M1-E322) in pPICZalphaA with myc and poly-His tags; secreted from Pichia pastoris X-33; dimer by DLS; catalytic triad S163, D252, H285
One may read the Km as the substrate concentration at which the rate is half of its maximum. Take B1: in data set [3], the Km turned out to be 7.68 ± 0.62 µM and the kcat is reported as 5.31 × 10^3 ± 20 s^−1.

For the origin of these results see PMC5552909, “The first description of a hormone‐sensitive lipase from a basidiomycete: Structural insights and biochemical characterization revealed Bjerkandera adusta BaEstB as a novel esterase” (MicrobiologyOpen, 2017).
